Measurements reported in article PMC13107026, “Intestinal epithelial C/EBPβ deficiency impairs colitis-associated tumorigenesis by disrupting CXCL1/CXCL2/CXCL5-CXCR2-mediated neutrophil infiltration”.

B1: CXCL2 MUT probe (dsDNA)
DNA 1: TAGAAGTGGTAGGGTCTCCTCTTACTGATA
DNA 2: TATCAGTAAGAGGAGACCCTACCACTTCTA
B2: CXCL1 WT probe (dsDNA)
DNA 1: TGGAACTTTCAAAATCCCCT
DNA 2: AGGGGATTTTGAAAGTTCCA
B3: CXCL2 WT probe (dsDNA)
DNA 1: TAGAAGTGGTGTTTCACAACCTTACTGATA
DNA 2: TATCAGTAAGGTTGTGAAACACCACTTCTA
B4: CXCL1 MUT probe (dsDNA)
DNA 1: TGGAAACGGTCCCCACCCCT
DNA 2: AGGGGTGGGGACCGTTTCCA
B5: CXCL5 WT probe (dsDNA)
DNA 1: CACTGTCTTGCTCCATGGCAG
DNA 2: CTGCCATGGAGCAAGACAGTG
B6: CXCL5 MUT probe (dsDNA)
DNA 1: CACTGTCAATTTTTATGGCAG
DNA 2: CTGCCATAAAAATTGACAGTG

What was measured:
[1] = molecular target: T1, C/EBPβ (Homo sapiens, UniProt P17676 1-345); test: competition; 100-fold molar excess vs biotin CXCL2 WT probe; LightShift Chemiluminescent EMSA kit; 6% native polyacrylamide gel, 0.5x TBE, 100 V, 60 min; binding buffer, salt, pH and temperature not stated; details: protein: recombinant; chain copies: 2; label: unlabeled; blunt
T1 sequence (P17676 whole entry): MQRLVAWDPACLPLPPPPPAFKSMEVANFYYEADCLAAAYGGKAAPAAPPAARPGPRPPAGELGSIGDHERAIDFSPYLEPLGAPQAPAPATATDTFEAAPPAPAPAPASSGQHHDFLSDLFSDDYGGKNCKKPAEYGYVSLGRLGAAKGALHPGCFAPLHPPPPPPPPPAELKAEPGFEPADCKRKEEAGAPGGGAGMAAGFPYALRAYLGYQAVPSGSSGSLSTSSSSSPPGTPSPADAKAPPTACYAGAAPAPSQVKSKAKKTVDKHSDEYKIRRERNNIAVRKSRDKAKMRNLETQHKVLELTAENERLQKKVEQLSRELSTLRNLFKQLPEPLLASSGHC

[2] = molecular target: T1, C/EBPβ; test: EMSA, competition, supershift; LightShift Chemiluminescent EMSA kit; 6% native polyacrylamide gel, 0.5x TBE, 100 V, 60 min; binding buffer, salt, pH and temperature not stated; details: protein: recombinant; chain copies: 2; label: biotin (5' of both strands); blunt
[3] = molecular target: T1, C/EBPβ; test: competition; 100-fold molar excess vs biotin CXCL1 WT probe; LightShift Chemiluminescent EMSA kit; 6% native polyacrylamide gel, 0.5x TBE, 100 V, 60 min; binding buffer, salt, pH and temperature not stated; details: protein: recombinant; chain copies: 2; label: unlabeled; blunt
[4] = molecular target: T1, C/EBPβ; test: competition; 100-fold molar excess vs biotin CXCL5 WT probe; LightShift Chemiluminescent EMSA kit; 6% native polyacrylamide gel, 0.5x TBE, 100 V, 60 min; binding buffer, salt, pH and temperature not stated; details: protein: recombinant; chain copies: 2; label: unlabeled; blunt

Binder	binding result [2]	also measured
B1		binding result [1]: no binding
B2	binds	
B3	binds	
B4		binding result [3]: no binding
B5	binds	
B6		binding result [4]: no binding
